Assay results: patent publication US20130280298A1 (FOLIA BIOTECH, published 2013)

How the values were obtained:
[1] = biological target: T1, influenza A/WSN/33 (H1N1) NP protein (influenza virus A/WSN/33 (H1N1), UniProt P15682 1-498)
[2] = biological target: T1, influenza A/WSN/33 (H1N1) NP protein; assay: phage display panning (Ph.D.-7) on NP coated on MaxiSorp plates, 5 rounds

T1 sequence (P15682 whole entry): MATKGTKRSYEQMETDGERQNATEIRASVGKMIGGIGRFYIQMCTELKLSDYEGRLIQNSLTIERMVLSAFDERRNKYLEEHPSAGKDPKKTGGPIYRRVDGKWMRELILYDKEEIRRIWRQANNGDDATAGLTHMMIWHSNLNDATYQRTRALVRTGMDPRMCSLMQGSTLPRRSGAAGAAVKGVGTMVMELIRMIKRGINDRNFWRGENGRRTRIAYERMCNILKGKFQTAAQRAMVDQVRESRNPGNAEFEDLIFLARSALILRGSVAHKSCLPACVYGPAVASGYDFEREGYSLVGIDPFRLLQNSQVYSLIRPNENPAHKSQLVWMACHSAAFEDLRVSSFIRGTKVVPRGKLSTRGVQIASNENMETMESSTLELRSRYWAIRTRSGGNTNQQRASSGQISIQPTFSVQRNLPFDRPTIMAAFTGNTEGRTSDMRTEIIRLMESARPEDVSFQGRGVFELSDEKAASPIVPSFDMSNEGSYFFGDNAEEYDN

B1: PapMV HAV-ANP2 (designed binder)
chain: MASTPNIAFPAITQEQMSSIKVDPTSNLLPSQEQLKSVSTLMVAAKVPAASVTTVALELVNFCYDNGSSAYTTVTGPSSIPEISLAQLASIVKASGTSLRKFCRYFAPIIWNLRTDKMAPANWEASGYKPSAKFAAFDFFDGVENPAAMQPPSGLTRSPTQEERIANATNKQVHLFQAAAQDNNFASNSAFITKGQISGSTPTIQFLPPPETSKVWQIPHTRHHHHHH
With B1 the “fold increase of the avidity (OPD, nm) over HAV-ANP 1 and PapMV VLPs” value [1] was ~5 fold and the “fold increase of the signal over PapMV HAV-ANP1 and PapMV VLPs” value [1] was 5 fold.

B2: FHEFWPT (peptide)
peptide: FHEFWPT
notes: also called ANP1
B2: binds [2].
